One block for each binder: values may come before it.
Key:
[1] = target: T1, human IL-4Rα on cells (human PBMC B cells and CD4+ T cells, Daudi cells, HEK-Blue IL-4/IL-13 cells, myeloid … (human, UniProt P24394 26-825)); assay: flow cytometry on human PBMCs, CD4-positive T cells, Alexa Fluor 647 labelled antibody, percent IL-4Rα positive cells
T1 sequence: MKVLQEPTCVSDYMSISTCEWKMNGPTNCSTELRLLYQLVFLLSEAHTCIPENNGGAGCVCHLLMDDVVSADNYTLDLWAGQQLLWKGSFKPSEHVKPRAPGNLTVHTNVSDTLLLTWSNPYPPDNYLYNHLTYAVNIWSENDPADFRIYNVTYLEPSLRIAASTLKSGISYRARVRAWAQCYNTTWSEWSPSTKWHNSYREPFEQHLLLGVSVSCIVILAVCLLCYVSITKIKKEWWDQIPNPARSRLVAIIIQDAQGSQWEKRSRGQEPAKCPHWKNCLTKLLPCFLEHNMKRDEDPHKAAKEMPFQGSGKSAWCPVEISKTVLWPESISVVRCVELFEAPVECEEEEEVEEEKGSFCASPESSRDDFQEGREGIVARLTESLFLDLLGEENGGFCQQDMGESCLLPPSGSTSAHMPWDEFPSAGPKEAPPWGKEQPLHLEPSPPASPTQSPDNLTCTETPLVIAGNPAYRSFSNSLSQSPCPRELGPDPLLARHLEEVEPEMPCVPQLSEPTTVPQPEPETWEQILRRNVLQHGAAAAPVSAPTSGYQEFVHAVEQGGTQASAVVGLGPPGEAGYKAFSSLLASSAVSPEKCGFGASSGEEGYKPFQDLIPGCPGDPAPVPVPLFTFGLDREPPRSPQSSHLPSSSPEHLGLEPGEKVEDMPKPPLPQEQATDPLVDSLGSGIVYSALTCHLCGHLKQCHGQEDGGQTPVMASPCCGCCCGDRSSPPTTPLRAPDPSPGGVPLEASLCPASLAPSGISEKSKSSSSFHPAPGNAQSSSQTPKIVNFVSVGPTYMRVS
Protocol: (§1) Example 3b. Binding to B cells and T cells: Binding of the exemplified anti-human IL-4Rα antibodies to B cells and T cells was tested in a Fluorescence Activated Cell Sorting (FACS) assay. […] Freshly isolated cells PBMCs were resuspended at 2×10⁶ cells/mL and allowed to rest for 15 minutes at room temperature, then plated at 100 μL/well into a round bottom 96-well plate (COSTAR®) and washed with FACS buffer (PBS containing 2% fetal bovine serum from Corning®). Exemplified anti-human IL-4Rα antibodies and the respective control IgG antibodies conjugated to Alexa Fluor® 647 according to manufacturer's protocol (Thermo Fisher Scientific) were added to the wells at 66.67 nM and diluted 4-fold in duplicate. Equivalent volume of 2× antibody cocktail containing: Human TruStain FcX™. FITC anti-human CD3 Antibody, Alexa Fluor® 700 anti-human CD4 Antibody (all from Biolegend®) and CD20 Monoclonal Antibody (2H7), PerCP-Cyanine5.5 (Thermo Fisher Scientific) was then added to the wells. Cells were incubated at 4° C. for 30 minutes, washed twice with FACS buffer and resuspended in a final volume of 100 μL FACS buffer. Viability dye, Sytox™ blue (Thermo Fisher Scientific), was added and the samples were analyzed via a flow cytometer (LSRFortessa™ X-20; BD BIOSCIENCES). Data analysis was performed using FlowJo software and statistical analysis was performed using GraphPad Prism 9. […]

[2] = target: T1, human IL-4Rα on cells (human PBMC B …); assay: flow cytometry on human PBMCs, CD20 B cells, Alexa Fluor 647 labelled antibody, percent IL-4Rα positive cells
Protocol: as §1

[3] = target: T2, human FcγRIIA_131H (CD32a) extracellular domain (human, UniProt P12318 34-217); assay: SPR (Biacore), antibody captured on protein A, FcγR ECD as analyte, steady state, 25 °C
T2 construct: extracellular domain
T2 sequence (looked up): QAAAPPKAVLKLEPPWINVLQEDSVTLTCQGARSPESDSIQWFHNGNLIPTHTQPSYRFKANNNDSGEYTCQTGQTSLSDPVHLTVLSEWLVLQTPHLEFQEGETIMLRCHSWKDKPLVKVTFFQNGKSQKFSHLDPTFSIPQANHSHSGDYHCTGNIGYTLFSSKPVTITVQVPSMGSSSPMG
Protocol: (§2) Unreacted sites were blocked with a 7 minute injection of ethanolamine at 10 μL/minute. Injections of 2×10 μL of glycine, pH 1.5, was used to remove any noncovalently associated protein. Running buffer was 1×HBS-EP+(TEKNOVA, P/N H8022). The FcγR extracellular domains (ECDs)-FcγRI (CD64), FcγRIIA_131R, and FcγRIIA_131H (CD32a), FcγRIIIA_158V, FcγRIIIA_158F (CD16a), and FcγRIIb (CD32b) were produced from stable CHO cell expression and purified using IgG Sepharose and size exclusion chromatography. For FcγRI binding, antibodies were diluted to […] in running buffer, and approximately 150 RU of each antibody was captured in FCs 2 through 4 (RU captured). FC1 was the reference FC, therefore no antibody was captured in FC1. […] Duplicate injections of each concentration were injected over all FCs at 40 μL/minute for 120 seconds followed by a 1200 second dissociation phase. Regeneration was performed by injecting 15 μL of 10 mM glycine, pH 1.5, at 30 μL/minute over all FCs. Reference-subtracted data was collected as FC2 FC1, FC3-FC1, and FC4-FC1 and the measurements were obtained at 25° C. The affinity (KD) was calculated using either steady state equilibrium analysis with the Scrubber 2 Biacore Evaluation Software or a “1:1 (Langmuir) binding” model in BIA Evaluation. For FcγRIIa, FcγRIIb, and FcγRIIIa binding, antibodies were diluted to 5 μg/mL in running buffer, and approximately 500 RU of each antibody was captured in FCs 2 through 4). FC1 was the reference FC. […] Duplicate injections of each concentration were injected over all FCs at 40 μL/minute for 60 seconds followed by a 120 second dissociation phase. Regeneration was performed by injecting 15 μL of 10 mM glycine, pH 1.5, at 30 μL/minute over all FCs. Reference-subtracted data was collected as FC2-FC1, FC3-FC1, and FC4-FC1, and the measurements were obtained at 25° C. The affinity (KD) was calculated using the steady state equilibrium analysis with the Scrubber 2 Biacore Evaluation Software. Each receptor was assayed at least two times.

[4] = target: T3, human FcγRIIIA_158V (CD16a) extracellular domain (human, UniProt P08637 17-208); assay: as above
T3 construct: extracellular domain
T3 sequence (P08637 17-208 F176V): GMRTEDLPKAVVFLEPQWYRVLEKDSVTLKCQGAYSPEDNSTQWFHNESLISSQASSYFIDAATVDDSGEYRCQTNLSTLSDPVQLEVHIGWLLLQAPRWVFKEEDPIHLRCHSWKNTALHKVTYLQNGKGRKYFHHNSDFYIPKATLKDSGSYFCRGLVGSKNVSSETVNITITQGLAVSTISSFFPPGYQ
Protocol: as §2

EC50 [1]: 26.3 nM
EC50 [2]: 0.15 nM
B1: anti-human IL-4Rα antibody Ab1 (antibody, human IgG4 S228P, kappa)
heavy: QVQLVESGGGLVQPGGSLRLSCVASGFTFSHSSMNWVRQAPGKGLEWVSYISRATGAVYYADSVKGRFTISRDNAKNSLYLQMNSLRDEDTAVYYCAREPVFDYWGQGTLVTVSSASTKGPCVFPLAPCSRSTSESTAALGCLVKDYFPEPVTVSWNSGALTSGVHTFPAVLQSSGLYSLSSVVTVPSSSLGTKTYTCNVDHKPSNTKVDKRVESKYGPPCPPCPAPEFLGGPSVFLFPPKPKDTLMISRTPEVTCVVVDVSQEDPEVKFNWYVDGVEVHNAKTKPREEQFNSTYRVVSVLTVLHQDWLNGKEYKCKVSNKGLPSSIEKTISKAKGQPREPQVYTLPPSREEMTKNQVSLTCLVKGFYPSDICVEWESNGQPENNYKTTPPVLDSDGSFFLYSRLTVDKSRWQQGNVFSCSVMHEALHNHYTQKSLSLSLG
light: DIQMTQSPSAMSASVGDRVTITCRASQDISNYLAWFQQKPGKVPTRLIYAASSLQSGVPSRFSGSGSGTEFTLTISSLQPEDFATYYCLQWSSYPRTFGQGTKVEIKRTVAAPSVFIFPPSDEQLKSGTASVVCLLNNFYPREAKVQWKVDNALQSGNSQESVTEQDSKDSTYSLSSTLTLSKADYEKHKVYACEVTHQGLSSPVTKSFNRGEC
notes: human kappa light chain; also called anti-human IL-4Rα Ab1; unconjugated Ab1

Kd [3]: 3650 nM
Kd [4]: 4920 nM
B2: anti-human IL-4Rα Ab1 GC conjugate of Example 1b (n=4) (antibody, human IgG4 S228P, kappa)
heavy: B1 heavy
light: B1 light
modifications: glucocorticoid receptor agonist payload-linker (GC-L, Preparation 8) conjugated to the engineered cysteines at the 124 and 378 position of the heavy chain (EU numbering); n is 4 (average DAR 4.17 by RP-HPLC, 3.85 by TOF MS)

Source: patent US20240100176A1 (Eli Lilly, published 2024)
